In patent EP4549938A1:

Target: No. 1 APOA2-like protein (vasculitis-associated apolipoprotein A2, VAP2) (human)
Assay: Western blot band score with VasSF, COVID-19 patient sera at hospital admission (Fig. 4)

signal score: 4 /2 µL serum
B1: VasSF, single chain variable region fragment (ScFv) (scFv, V domains shown)
VH: QVHLVESGGGLVQPGRSLRLSCAVSGFTFASYAMHWVRQAPGKGLEWVAGISKDGSNKRHADSLEGRFTISRDNSKNTLYLQVSGLRAEDTAVYYCARSQDPTDFDWLLSEHWGQGTLVTVSS
